This note sets out measurements from publication PMC9063846, “The structure of Phocaeicola vulgatus sialic acid acetylesterase” (Acta Crystallographica. Section D, Structural Biology, 2022).

Broadly, the Km is the substrate concentration at which the rate is half of its maximum. In general, kcat refers to the maximal rate divided by the concentration of active sites. Usually kcat/Km stands for the turnover number divided by the Michaelis constant.

Substrate in the data set: CC(=O)Oc1ccc([N+](=O)[O-])cc1
The experiment in a line: purified protein. To be noted: 10 nM enzyme, 100 mM phosphate-citrate buffer pH 7.0, 25 °C, 1% DMSO. It is filed as biochemical, Phocaeicola vulgatus.

B1: PvSAE (Phocaeicola vulgatus ATCC 8482) (protein)
chain: ERKYSTFYEQRATLFEELPVTSKDIIFLGNSITNGCEWAELFQNKNVKNRGISGDICMGVYDRLDPIVKGKPAKIFLLIGINDVSRGTSADKIISEISMIVRKIKQESPKTKLYLQSVLPVNDCYGMFNGHTSRWQVVKQINDLLEPLAVKEGVAYIDLYSHFVEKETGKMNPVYTNDGLHLLGKGYLLWRDIVKPYVDQK
notes: signal peptide removed (predicted cleavage 19/20); E. coli BL21(DE3) Gold
For B1, the Km was 80 ± 6 µM, the kcat was 75 ± 1 s⁻¹ and the kcat/Km turned out to be 930000 ± 70000 M⁻¹ s⁻¹.
